Reference: patent publication US20130252307A1

Legend:
[1] = target: (I27G32C-A75C)8 polypeptide (UniProt Q8WZ42)
[2] = target: (I27G32C-A75C)8 polypeptide, Q8WZ42
[3] = target: (I27G32C-A75C)8 polypeptide (UniProt Q8WZ42); assay: given as k10 (k10=δ0); three-state kinetic model fitted to force-dependent disulfide reduction rates, single-molecule AFM force-clamp, pH 7.2; not a direct binding assay
[4] = target: (I27G32C-A75C)8 polypeptide (UniProt Q8WZ42); assay: given as α0 (k01=α0[Trx]); three-state kinetic model fitted to force-dependent disulfide reduction rates, single-molecule AFM force-clamp, pH 7.2; not a direct binding assay

koff [3] [s⁻¹] | kon [4] [M⁻¹ s⁻¹] | Molecule | staircases of single reduction events (AFM force-clamp) [2] | Δx02 (Å) [2] [Å] | Δx12 (Å) [2] [Å] | β0 (s-^1) [2] [s⁻¹] | γ0 [2] [µM⁻¹ s⁻¹] | λ0 [2] [s⁻¹] | other results
– | – | Trx from Sulfolobus tokodaii | – | – | – | – | – | – | rate of disulfide reduction at pH 5 [1]: does not show detectable activity at pH 5; rate of disulfide reduction at pH 7, 50 pN [1]: active at pH 7 (0.12×10^5 M^-1 s^-1 at 50 pN)
– | – | Trx from Acetobacter aceti | – | – | – | – | – | – | rate of disulfide reduction at pH 5, 100 pN [1]: active at pH 5 (0.6×10^5 M^-1 s^-1 at 100 pN)
– | – | archaeal/eukaryotic common ancestor (AECA) Trx (protein) MSVIEINDENFDEVIKKSDKVVVVDFWAEWCGPCRMIAPIIEELAEEYAGKVVFGKVNVDENPEIAAKYGIMSIPTLLFFKNGKVVDQLVGARPKEALKERIKKYL | All the ancestral enzymes resurrected using the methods described herein were able to trigger staircases of reduction events | 0.19 | -0.84 | 25 | 0.019 | 0.21 | rate constant of disulfide bond reduction extrapolated to zero force (pH 7.2) [2]: 30×10^5 M^-1 s^-1 for AECA Trx; reduction rate constant at pH 5 extrapolated to zero force [2]: 19×10^5 M^-1 s^-1
– | – | last archaeal common ancestor (LACA) Trx (protein) MSVVQLNDENFDEVIKKNNKVVVVDFWAEWCGPCRMIAPIIEELAKEYAGKVVFGKLNVDENPETAAKYGIMSIPTLLFFKNGKVVDQLVGAMPKEALKERIKKYL | All the ancestral enzymes resurrected using the methods described herein were able to trigger staircases of reduction events | – | -0.76 | 43 | – | 0.38 | rate constant of disulfide bond reduction extrapolated to zero force (pH 7.2) [2]: 29×10^5 M^-1 s^-1 for LACA Trx; reduction rate constant at pH 5 extrapolated to zero force [2]: 6.2×10^5 M^-1 s^-1
– | – | wild type human Trx enzyme (protein) VKQIESKTAFQEALDAAGDKLVVVDFSATWCGPCKMIKPFFHSLSEKYSNVIFLEVDVDDCQDVASECEVKCMPTFQFFKKGQKVGEFSGANKEKLEATINELV | – | – | – | – | – | – | rate of reduction at pH 5, fold lower than LBCA [2]: modern E. coli and human thioredoxin show ˜20 fold lower rates at this pH; reoxidation of substrate disulfide bonds during refolding (step sizes in the probe pulse) [2]: none of the refolded domains formed a disulfide bond, indicating that the wild type form of thioredoxin does not catalyze reoxidation
– | – | C35S human thioredoxin mutant (hTrx^C35S) (protein) VKQIESKTAFQEALDAAGDKLVVVDFSATWCGPSKMIKPFFHSLSEKYSNVIFLEVDVDDCQDVASECEVKCMPTFQFFKKGQKVGEFSGANKEKLEATINELV | – | – | – | – | – | – | reoxidation of substrate disulfide bonds during refolding (step sizes in the probe pulse) [2]: the step sizes during the probe pulse are now entirely composed of 11 and 14 nm steps, indicating the full reoxidation of all the disulfide bonds
3.8 | 480000 | last common ancestor of γ-proteobacteria (LGPCA) Trx (protein) MSIIHVTDDSFDQDVLKADKPVLVDFWAEWCGPCKMIAPILDEIAEEYEGKLKVAKVNIDENPETAAKYGIRGIPTLMLFKNGEVAATKVGALSKSQLKEFLDANL | All the ancestral enzymes resurrected using the methods described herein were able to trigger staircases of reduction events | 0.17 | -0.83 | 34 | 0.012 | 0.35 | –
4.9 | 470000 | last common ancestor of cyanobacterial and deinococcus/thermus groups (LPBCA) Trx (protein) MSVIEVTDENFEQEVLKSDKPVLVDFWAPWCGPCRMIAPIIEELAKEYEGKVKVVKVNVDENPNTAAQYGIRSIPTLLLFKNGQVVDRLVGAQPKEALKERIDKHL | All the ancestral enzymes resurrected using the methods described herein were able to trigger staircases of reduction events | 0.17 | -0.71 | 30 | 0.017 | 0.19 | –
4.2 | 760000 | last eukaryotic common ancestor (LECA) Trx (protein) MVIQVTNKEEFEAILSEADKLVVVDFFATWCGPCKMIAPFFEELSEEYPDKVVFIKVDVDEVPDVAAKYGITSMPTFKFFKNGKKVDELVGANQEKLKQMILKHAP | All the ancestral enzymes resurrected using the methods described herein were able to trigger staircases of reduction events | – | -0.8 | 38 | – | 0.18 | –
4.6 | 810000 | last common ancestor of animals and fungi (LAFCA) Trx (protein) MVIQVTNKDEFESILSEADKLVVVDFTATWCGPCKMIAPKFEELSEEYPDNVVFLKVDVDEVEDVAAEYGISAMPTFQFFKNGKKVDELTGANQEKLKAMIKKHAA | All the ancestral enzymes resurrected using the methods described herein were able to trigger staircases of reduction events | – | -0.74 | 37 | – | 0.06 | –
5.8 | 470000 | last bacterial common ancestor (LBCA) Trx (protein) MSVIEINDENFEEEVLKSDKPVLVDFWAPWCGPCRMIAPIIEELAEEYEGKVKFAKVNVDENPETAAKYGIMSIPTLLLFKNGEVVDKLVGARPKEALKERIEKHL | All the ancestral enzymes resurrected using the methods described herein were able to trigger staircases of reduction events | 0.19 | -0.74 | 30 | 0.004 | 0.09 | rate of catalysis at pH 5 [2]: showed a high rate of catalysis at pH 5, where extant enzymes are largely inactive; reduction rates at pH 5 [2]: the reduction rates observed at pH 5 are strikingly similar to those measured at pH 7.2
